# Literature values as cited in US20230107428A1 (priority 2021, published 2023).
# T1: interleukin-6 receptor (Homo sapiens, UniProt P08887)
# T1 construct: host or cells: patients (endogenous receptor)
# T1 sequence (P08887 20-468): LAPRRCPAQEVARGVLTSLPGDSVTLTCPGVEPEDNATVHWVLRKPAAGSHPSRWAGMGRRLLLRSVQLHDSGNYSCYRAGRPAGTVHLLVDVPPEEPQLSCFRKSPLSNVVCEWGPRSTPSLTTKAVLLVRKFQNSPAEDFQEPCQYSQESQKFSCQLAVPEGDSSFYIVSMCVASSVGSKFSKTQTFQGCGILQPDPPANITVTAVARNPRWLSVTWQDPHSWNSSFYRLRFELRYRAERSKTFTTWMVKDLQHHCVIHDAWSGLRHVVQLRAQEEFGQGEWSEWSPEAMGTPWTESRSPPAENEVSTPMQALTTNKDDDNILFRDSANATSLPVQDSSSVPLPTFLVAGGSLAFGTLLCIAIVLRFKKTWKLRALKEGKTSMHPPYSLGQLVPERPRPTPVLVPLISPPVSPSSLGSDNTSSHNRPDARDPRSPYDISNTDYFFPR
# B1: sarilumab (antibody, chains of the INN, looked up, V domains shown)
# VH: EVQLVESGGGLVQPGRSLRLSCAASRFTFDDYAMHWVRQAPGKGLEWVSGISWNSGRIGYADSVKGRFTISRDNAENSLFLQMNGLRAEDTALYYCAKGRDSFDIWGQGTMVTVSS
# VL: DIQMTQSPSSVSASVGDRVTITCRASQGISSWLAWYQQKPGKAPKLLIYGASSLESGVPSRFSGSGSGTDFTLTISSLQPEDFASYYCQQANSFPYTFGQGTKLEIK
# Columns and labels:
# hepatitis B virus = details: in vitro; cited from earlier work
# interleukin-6 receptor = biological target: T1, interleukin-6 receptor; details: tocilizumab or sarilumab, intensive care units; cited from earlier work
molecule,measurement,setting,value
CC(=O)O[C@H]([C@@H]1C[C@@H](C)C2=C3C=C[C@H]4[C@@]5(C)CCC(=O)C(C)(C)[C@@H]5CC[C@]4(C)[C@@]3(C)C[C@@H]2O1)C(C)(C)O [Alisol O],inhibition of hepatitis B virus,hepatitis B virus,could inhibit
tocilizumab [reference compound],survival in severe patients,interleukin-6 receptor,increased
B1,survival in severe patients,interleukin-6 receptor,increased
